Assay [1] has as its target T1, dSmo (Drosophila Smoothened, epitope tagged) (Drosophila, UniProt P91682 32-1036).
T1 construct: also called dro.smo
T1 sequence: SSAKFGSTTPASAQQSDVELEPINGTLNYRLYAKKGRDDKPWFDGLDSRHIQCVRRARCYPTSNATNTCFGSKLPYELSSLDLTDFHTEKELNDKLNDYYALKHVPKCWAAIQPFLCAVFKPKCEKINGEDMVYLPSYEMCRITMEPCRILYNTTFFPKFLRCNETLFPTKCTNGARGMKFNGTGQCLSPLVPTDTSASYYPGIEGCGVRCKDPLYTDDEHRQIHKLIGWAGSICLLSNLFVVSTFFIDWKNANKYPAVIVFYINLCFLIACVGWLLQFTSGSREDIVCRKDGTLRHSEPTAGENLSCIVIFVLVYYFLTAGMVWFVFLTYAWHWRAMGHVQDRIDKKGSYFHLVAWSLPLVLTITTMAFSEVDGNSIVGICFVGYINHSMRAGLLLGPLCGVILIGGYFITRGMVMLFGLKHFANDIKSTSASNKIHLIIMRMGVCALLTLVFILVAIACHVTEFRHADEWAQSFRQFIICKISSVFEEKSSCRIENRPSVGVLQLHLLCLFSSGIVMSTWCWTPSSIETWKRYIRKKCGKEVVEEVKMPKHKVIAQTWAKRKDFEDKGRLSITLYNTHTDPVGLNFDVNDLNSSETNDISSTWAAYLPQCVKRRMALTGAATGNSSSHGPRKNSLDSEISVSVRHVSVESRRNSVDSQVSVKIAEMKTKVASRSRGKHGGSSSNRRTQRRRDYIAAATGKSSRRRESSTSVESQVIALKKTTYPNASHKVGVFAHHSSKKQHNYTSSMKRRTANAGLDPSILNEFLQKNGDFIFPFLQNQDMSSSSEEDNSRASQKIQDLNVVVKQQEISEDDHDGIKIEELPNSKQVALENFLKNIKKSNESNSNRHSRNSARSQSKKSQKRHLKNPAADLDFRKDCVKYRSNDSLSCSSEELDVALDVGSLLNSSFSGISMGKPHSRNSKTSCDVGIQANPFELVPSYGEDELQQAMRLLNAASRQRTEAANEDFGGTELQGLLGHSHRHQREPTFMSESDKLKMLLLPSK
Put plainly: staining of transfected cells exposed to tagged ligand.

The target in assay [2] is T2, Flag tagged rSmo (rat Smoothened with C-terminal Flag epitope tag) (rat, UniProt P97698 33-793).
T2 construct: Expressed transiently in COS-7 or 293 cells from pRK5
T2 sequence (P97698 33-793): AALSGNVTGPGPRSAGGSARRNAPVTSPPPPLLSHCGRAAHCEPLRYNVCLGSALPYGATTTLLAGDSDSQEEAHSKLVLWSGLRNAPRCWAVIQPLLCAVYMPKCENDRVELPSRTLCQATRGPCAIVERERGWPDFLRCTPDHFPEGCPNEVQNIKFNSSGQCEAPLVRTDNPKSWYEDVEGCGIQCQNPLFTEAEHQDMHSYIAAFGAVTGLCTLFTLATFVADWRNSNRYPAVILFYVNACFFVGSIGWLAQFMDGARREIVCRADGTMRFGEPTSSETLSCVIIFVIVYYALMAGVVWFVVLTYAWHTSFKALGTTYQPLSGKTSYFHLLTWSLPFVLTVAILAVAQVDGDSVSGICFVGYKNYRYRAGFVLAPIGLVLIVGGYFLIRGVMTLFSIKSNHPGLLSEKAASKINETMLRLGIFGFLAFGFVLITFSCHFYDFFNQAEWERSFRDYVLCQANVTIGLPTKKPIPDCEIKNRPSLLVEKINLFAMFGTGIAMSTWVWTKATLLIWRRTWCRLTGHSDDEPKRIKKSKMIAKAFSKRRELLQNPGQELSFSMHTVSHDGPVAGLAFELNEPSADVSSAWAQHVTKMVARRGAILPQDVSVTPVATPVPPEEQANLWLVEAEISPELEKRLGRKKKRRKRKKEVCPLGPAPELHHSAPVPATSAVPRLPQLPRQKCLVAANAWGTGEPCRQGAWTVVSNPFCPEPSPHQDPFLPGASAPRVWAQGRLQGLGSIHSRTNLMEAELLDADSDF
Described as above.

B1: epitope tagged Desert HH (ligand, not shown: small tags and cut ends)
chain: not shown
In the case of B1, the binding result in assay [1] and in assay [2] was “no binding” throughout.
